Results: paper PMC9396398, “Crystal structure of Ankyrin-G in complex with a fragment of Neurofascin reveals binding mechanisms required for integrity of the axon initial segment” (The Journal of Biological Chemistry, 2022)

Key:
[1] = biological target: T1, AnkG R1-24 L343Q, L376Q (Rattus norvegicus); assay: ITC
T1 chain: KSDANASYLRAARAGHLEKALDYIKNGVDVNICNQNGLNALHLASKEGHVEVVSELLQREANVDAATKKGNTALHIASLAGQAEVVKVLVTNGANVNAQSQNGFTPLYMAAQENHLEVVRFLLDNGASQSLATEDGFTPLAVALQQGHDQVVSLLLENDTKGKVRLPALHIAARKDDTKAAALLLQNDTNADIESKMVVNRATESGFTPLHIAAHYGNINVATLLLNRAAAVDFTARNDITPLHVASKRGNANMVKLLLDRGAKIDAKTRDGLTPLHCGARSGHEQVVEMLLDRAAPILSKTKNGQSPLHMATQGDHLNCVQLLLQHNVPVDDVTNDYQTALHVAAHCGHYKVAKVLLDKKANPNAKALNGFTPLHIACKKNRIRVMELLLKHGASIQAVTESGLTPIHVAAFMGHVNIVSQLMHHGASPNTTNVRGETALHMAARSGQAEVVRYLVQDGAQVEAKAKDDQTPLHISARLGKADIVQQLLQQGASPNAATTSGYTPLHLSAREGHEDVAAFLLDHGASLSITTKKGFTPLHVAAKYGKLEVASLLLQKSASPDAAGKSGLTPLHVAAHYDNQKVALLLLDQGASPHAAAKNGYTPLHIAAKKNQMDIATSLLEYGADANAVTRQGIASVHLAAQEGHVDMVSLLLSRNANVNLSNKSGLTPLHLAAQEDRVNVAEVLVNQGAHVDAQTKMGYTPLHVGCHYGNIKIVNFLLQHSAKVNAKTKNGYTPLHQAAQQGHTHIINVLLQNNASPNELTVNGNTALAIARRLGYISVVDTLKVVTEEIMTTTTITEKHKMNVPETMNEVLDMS

[2] = biological target: T2, AnkG R6-24 (Rattus norvegicus); assay: ITC
T2 chain: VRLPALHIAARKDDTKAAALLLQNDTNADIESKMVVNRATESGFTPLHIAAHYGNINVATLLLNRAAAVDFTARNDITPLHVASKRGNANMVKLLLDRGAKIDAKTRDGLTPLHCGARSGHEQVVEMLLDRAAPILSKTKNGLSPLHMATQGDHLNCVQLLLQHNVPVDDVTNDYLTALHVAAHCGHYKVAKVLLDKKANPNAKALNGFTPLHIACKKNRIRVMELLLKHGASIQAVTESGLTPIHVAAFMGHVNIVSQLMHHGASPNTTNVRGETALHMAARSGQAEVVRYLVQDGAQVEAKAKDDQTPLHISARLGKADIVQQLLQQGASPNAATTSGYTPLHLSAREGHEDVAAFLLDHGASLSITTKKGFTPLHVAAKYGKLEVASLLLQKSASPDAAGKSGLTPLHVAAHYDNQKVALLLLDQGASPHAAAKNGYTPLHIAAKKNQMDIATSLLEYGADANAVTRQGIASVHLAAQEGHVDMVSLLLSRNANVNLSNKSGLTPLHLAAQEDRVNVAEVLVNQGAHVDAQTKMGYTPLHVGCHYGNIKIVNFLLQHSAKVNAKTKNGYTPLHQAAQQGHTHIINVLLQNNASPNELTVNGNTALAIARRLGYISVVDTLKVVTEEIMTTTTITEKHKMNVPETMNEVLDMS

[3] = biological target: T3, AnkG R8-24 (Rattus norvegicus); assay: ITC
T3 chain: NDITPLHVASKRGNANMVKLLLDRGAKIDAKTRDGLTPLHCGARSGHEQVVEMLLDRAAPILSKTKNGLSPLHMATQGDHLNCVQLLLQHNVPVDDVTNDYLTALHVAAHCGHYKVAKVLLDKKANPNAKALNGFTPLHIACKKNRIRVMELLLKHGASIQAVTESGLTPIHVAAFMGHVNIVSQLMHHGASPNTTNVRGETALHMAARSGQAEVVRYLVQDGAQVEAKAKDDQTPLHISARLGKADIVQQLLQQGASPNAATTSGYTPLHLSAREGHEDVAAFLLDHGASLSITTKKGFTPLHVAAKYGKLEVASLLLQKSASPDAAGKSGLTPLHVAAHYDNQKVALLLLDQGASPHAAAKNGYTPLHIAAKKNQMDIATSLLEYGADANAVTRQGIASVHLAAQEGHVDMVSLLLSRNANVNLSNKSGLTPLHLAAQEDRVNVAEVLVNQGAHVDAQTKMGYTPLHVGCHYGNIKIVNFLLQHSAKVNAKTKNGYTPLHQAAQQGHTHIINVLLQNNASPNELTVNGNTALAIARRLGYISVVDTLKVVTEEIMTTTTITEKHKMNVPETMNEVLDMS

[4] = biological target: AnkG R6-16 (UniProt O70511); assay: ITC; VP-ITC at 25 °C; 50 mM Tris, 100 mM NaCl, 1 mM EDTA, 1 mM DTT, pH 7.8; Nfasc proteins (200 μM) in the syringe, AnkG proteins (20 μM) in the cell; one-site binding model
AnkG R6-16, sequence (O70511 whole entry): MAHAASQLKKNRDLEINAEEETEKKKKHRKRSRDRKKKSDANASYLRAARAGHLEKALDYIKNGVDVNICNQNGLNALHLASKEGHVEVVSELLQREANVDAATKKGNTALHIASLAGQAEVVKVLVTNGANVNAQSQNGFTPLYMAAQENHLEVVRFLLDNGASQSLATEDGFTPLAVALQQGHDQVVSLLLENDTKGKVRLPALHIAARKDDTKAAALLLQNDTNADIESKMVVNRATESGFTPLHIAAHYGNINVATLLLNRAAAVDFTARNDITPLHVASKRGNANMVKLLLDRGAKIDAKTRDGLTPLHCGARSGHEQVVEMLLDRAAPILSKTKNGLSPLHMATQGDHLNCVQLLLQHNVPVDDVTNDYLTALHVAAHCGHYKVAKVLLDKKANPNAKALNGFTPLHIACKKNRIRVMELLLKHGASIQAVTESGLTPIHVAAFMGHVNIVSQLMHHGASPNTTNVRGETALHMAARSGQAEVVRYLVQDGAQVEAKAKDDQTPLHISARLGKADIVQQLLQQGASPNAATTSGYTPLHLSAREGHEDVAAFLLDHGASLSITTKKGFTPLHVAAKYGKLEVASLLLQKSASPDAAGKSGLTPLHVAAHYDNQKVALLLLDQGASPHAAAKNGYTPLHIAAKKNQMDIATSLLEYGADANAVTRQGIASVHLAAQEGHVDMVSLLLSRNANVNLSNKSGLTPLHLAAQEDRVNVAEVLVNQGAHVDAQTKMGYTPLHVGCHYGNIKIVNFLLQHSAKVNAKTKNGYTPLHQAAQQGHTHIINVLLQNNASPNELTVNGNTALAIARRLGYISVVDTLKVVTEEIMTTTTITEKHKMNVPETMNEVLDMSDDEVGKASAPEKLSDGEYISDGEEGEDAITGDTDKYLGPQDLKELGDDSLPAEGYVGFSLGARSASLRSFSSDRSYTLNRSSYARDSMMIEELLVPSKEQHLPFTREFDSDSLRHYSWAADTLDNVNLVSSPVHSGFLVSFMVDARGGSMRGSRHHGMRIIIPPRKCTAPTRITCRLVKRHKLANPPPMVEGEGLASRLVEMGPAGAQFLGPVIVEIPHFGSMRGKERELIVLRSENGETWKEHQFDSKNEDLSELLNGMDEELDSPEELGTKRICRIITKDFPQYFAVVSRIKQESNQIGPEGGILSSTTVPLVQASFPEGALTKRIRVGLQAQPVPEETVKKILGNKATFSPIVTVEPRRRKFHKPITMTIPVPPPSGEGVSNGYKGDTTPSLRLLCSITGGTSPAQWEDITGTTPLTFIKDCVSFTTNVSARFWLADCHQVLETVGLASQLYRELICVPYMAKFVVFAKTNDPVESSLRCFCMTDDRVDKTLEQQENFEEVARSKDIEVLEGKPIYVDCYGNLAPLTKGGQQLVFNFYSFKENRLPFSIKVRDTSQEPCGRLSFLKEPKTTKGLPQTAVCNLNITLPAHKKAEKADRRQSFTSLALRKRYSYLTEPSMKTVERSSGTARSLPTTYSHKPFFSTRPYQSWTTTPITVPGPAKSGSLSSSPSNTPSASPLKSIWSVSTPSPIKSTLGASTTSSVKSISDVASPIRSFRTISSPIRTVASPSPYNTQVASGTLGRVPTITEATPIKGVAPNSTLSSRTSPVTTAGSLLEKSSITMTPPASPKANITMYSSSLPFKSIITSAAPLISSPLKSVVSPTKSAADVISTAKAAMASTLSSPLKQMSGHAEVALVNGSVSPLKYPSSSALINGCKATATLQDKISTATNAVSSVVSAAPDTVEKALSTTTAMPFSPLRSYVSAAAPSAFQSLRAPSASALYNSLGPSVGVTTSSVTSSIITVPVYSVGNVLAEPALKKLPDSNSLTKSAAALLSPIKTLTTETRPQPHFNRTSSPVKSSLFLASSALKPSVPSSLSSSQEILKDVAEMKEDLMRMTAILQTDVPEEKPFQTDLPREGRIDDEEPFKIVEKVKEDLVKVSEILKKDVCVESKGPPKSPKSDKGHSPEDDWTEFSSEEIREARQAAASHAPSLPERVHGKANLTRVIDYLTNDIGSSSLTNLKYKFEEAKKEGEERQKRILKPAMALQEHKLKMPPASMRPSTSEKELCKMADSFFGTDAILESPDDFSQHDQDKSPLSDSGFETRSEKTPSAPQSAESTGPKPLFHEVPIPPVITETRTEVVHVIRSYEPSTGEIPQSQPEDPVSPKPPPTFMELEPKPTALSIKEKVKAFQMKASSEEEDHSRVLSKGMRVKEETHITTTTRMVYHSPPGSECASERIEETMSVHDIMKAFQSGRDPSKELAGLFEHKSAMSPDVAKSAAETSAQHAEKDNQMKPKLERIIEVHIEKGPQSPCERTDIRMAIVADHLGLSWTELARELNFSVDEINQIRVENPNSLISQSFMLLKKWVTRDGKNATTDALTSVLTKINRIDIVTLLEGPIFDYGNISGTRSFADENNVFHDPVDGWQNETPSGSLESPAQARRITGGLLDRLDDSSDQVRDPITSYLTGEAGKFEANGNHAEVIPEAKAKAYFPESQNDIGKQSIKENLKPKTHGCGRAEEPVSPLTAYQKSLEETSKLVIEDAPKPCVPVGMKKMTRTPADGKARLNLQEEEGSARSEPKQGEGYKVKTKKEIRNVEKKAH

Kd [1]: 2000 nM
Kd [2]: 130 nM
Kd [3]: 1100 nM
Kd [4]: 290 nM
B1: Nfasc ankyrin-binding domain (ABD, residues 1187-1214) (domain or fragment, UniProt P97685 1187-1214, looked up)
chain: SDDSLVDYGEGGEGQFNEDGSFIGQYTV
notes: also called Nfasc ABD; source: E. coli BL21 (DE3), purified (Ni-NTA, size-exclusion chromatography)
